Assay results published in patent US20030021770A1.

Molecular target: mini-MUC1 polypeptide (product of the miMUC1 gene, human DF3/MUC1 with 7 variant tandem repeats) (human) (UniProt P15941)
Assay: flow cytometry, 1 ug/ml DF3 MAb on MC38/MUC1 cells, fluorescein-labeled goat anti-mouse IgG

Chain of UniProt P15941 (P15941 other isoform, or with tags, fused parts or gaps mutant, form in doubt): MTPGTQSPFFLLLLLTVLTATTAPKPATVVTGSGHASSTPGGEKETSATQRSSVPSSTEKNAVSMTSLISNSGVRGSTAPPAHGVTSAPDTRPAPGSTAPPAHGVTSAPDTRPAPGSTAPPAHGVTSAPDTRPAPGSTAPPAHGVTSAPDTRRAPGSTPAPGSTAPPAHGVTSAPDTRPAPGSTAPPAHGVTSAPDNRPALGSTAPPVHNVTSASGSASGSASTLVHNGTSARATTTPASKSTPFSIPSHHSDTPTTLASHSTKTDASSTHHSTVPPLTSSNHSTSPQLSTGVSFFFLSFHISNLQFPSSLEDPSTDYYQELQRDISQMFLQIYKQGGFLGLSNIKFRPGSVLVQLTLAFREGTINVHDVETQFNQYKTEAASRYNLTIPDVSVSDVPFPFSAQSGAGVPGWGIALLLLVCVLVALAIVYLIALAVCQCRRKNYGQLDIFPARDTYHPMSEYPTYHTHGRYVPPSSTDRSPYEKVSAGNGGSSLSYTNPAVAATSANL

Work on DF3 monoclonal antibody (anti-MUC1) yielded a mean fluorescence of 400 and a percent of cells positive of 87.5%.
